Reference: the nanobody polyreactivity screen of Harvey et al. (2022)

Assay: yeast display, Sf9 membrane polyspecificity reagent, FACS + sequencing; frameworks hold sequencing errors
How it was run: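 Galactose induction of a Saccharomyces cerevisiae BJ5465 synthetic nanobody display library ran 36–48 hours. The cells were then stained for 1 hour at 4 °C with 10% biotinylated, detergent-solubilized Sf9 membrane reagent, pulled down on streptavidin microbeads and FACS-sorted into low and high (top ~1%) gates on expression and reagent-binding fluorescence. Labels for polyreactivity follow the gate of origin.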

## QVQLVESGGGLVQAGGSLRLSCAASGSTFGSNAMGWYRQAPGKERELVAAIRGIVGSTYYADSVKGRFTISRDNAKNTVYLQMNSLKPEDTAVYYCNKAEVSTYYHTRSTYGGYDYWGQGTQVTVSS
  polyreactivity (PSR sort gate): low polyreactivity

## QVQLVESGGGLVQAGGSLRLSCAASGSTFGSYAMGWHRQAPGKERELVASITYSGDSSNYSDSVKGRFTLSRDNAKNTVYLQMNSLKPEDTAVYYCKARAVMTQYIQKRYDYWGQGTQVTVSS
  polyreactivity (PSR sort gate): low polyreactivity

## QVQLVESGGGLVQAGGSLRLSCAASGSTFGSYAMGWYIQAPGKERELVAAISRAGSTYADSVKGRFTISRDNAKNTVYLQMNSLKPEDTAVYYCAKRDNALYYGYDYWGQGTQVTVSS
  polyreactivity (PSR sort gate): low polyreactivity

## QVQLVESGGGLVQAGGSLRLSCAASGSTFGSYAMGWYRQAPGGERELVAAISWNGGRTYYADSVKGRFTISRDNAKNTVYLQMNSLKPEDTAVYYCAKVVKYQSGGGLEYWGQGTQVTVSS
  polyreactivity (PSR sort gate): high polyreactivity

## QVQLVESGGGLVQAGGSLRLSCAASGSTFGSYAMGWYRQAPGKERELVAAISYSGGSTYYADSVKGRFTISRDNAKNTVYLLMNSLKPEDTAVYYCATVRKYRAMDYWGQGTQVTVSS
  polyreactivity (PSR sort gate): high polyreactivity

## QVQLVESGGGLVQAGGSLRLSCAASGSTFGSYAMGWYRQAPGKERELVAAITSSGGRTYYADSVKGRFTISRDNSKNTVYLQMNSLKPEDTAVYYCAARPRGGVFEYGYWGQGTQVTVSS
  polyreactivity (PSR sort gate): high polyreactivity

## QVQLVESGGGLVQAGGSLRLSCAASGSTFGSYAMGWYRQAPGKERELVAGISWSGGRTYYADSVKGRFTISRDNAKNTVYLQMNSLKPEDTAVYYCARDTGYYYARYNYWGQGTQVTVSS
  polyreactivity (PSR sort gate): low polyreactivity

## QVQLVESGGGLVQAGGSLRLSCAASGSTFGSYARGWYRPAPGKERELVAAISRTGGSTRYADSVKGRFTISRDNAQNSVYFQMNSLKPEDSAVYYCNARLSSYSTIRGVYWGQGTQVTVSS
  polyreactivity (PSR sort gate): high polyreactivity

## QVQLVESGGGLVQAGGSLRLSCAASGSTFGTYAMGWYRQAPGKERELVAAISSGDSTTYADSVKGRFTISRDNAKNTVYLQMNSLKPEDTAVYYCAARTFLMRNGGYNYWGQGTQVTVSS
  polyreactivity (PSR sort gate): low polyreactivity

## QVQLVESGGGLVQAGGSLRLSCAASGSTFGTYAMGWYRQAPGKERELVAAITSGGSTDYADSVKGRFTISRDNAKNTVYLQMNSLKPEDTAVYYCNATWELLSYYYLFWGYDYWGQGTQVTVSS
  polyreactivity (PSR sort gate): low polyreactivity

## QVQLVESGGGLVQAGGSLRLSCAASGSTFGVNAMGWYRQAPGKERELVAAIRSAVPTYYADSVKGRFTISRDNAKNTVYLQMNSLKPEDTAVYYCAKRWSAKYGFYYWGQGTQVTVSS
  polyreactivity (PSR sort gate): high polyreactivity

## QVQLVESGGGLVQAGGSLRLSCAASGSTFGVNAMGWYRQAPGKERELVATISRGTSTNYADSVKGRFTISRDNAKNTVYLQINSLKPEDTAVYYCAKRVFYPGAYRYYYWGQGTQVTVSS
  polyreactivity (PSR sort gate): high polyreactivity

## QVQLVESGGGLVQAGGSLRLSCAASGSTFGVNAMGWYRQAPGKERELVAVITRSGGSTYYADSVKGRFTISRDNAKNTVYLQMNSLKPEDTAVYYCAKSGVVDWGQGTQVTVSS
  polyreactivity (PSR sort gate): low polyreactivity

## QVQLVESGGGLVQAGGSLRLSCAASGSTFGVNAMGWYRQAPGTERELVADISVRTDSTYYADSVKGRVTISRDNAKNTVYLQMNSLKAEDTAVYYCNAGLGIEYDYWGQGTQVSVSS
  polyreactivity (PSR sort gate): low polyreactivity

## QVQLVESGGGLVQAGGSLRLSCAASGSTFGVYAMGWYRQAPGKEREFVAAISSSDGSTYYADSVKGRFTISRDNAKNTVYLQMNSLKPEDTAVYYCAKRGGYIYYAVTFTAEHGYWGQGTQVTVSS
  polyreactivity (PSR sort gate): low polyreactivity

## QVQLVESGGGLVQAGGSLRLSCAASGSTFGVYAMGWYRQAPGKERELVAAISGSGAGTYYADSVKGRFTISRDNAKNTVYLQMNSLKPEDTAVYYFNKVSVRGQRYGYWGQGTQVTVSS
  polyreactivity (PSR sort gate): high polyreactivity

## QVQLVESGGGLVQAGGSLRLSCAASGSTFGVYGMGWYRQAPGKERELVASITSDGNTNYADSVKGRFTISRDNAKNTVYLQMNSLKPEDTAVYYCNTVGIQALYDYWGQGTQVTVSS
  polyreactivity (PSR sort gate): low polyreactivity

## QVQLVESGGGLVQAGGSLRLSCAASGSTFGWYAMGWYRQAPGKEREFVAAISWSGTSTYYADSVKGRFTISRDNAKNTVYLQMNSLKPEDTAVYYCNARSKRANRSLGLGYWGQGTQVTVSS
  polyreactivity (PSR sort gate): low polyreactivity

## QVQLVESGGGLVQAGGSLRLSCAASGSTFGWYTMGWYRQAPGKERELVAAITSRGTRTSYADSVKGRFTISRDYAKNTVYLQMNSLKPEDTAVYYCAARVFRGLGEYYWGQGTQVTVSS
  polyreactivity (PSR sort gate): high polyreactivity

## QVQLVESGGGLVQAGGSLRLSCAASGSTFGYAMGWYRQAPGKEREMVAAITSTGGSTYYADSVKGRFTISRDNAKNTVYVQMHSLKPEDTAVYYCAAQVGRGYEVYPVYKYGYWGQGTQVTVSS
  polyreactivity (PSR sort gate): high polyreactivity

## QVQLVESGGGLVQAGGSLRLSCAASGSTFGYNAMGWDRQAPGKERELVAAITGNDGTTYYADSVKGRFTISRDNAKNSVYLQMNSLKPEDSAVYYCAARPYLGYIGYEYWGQGTQVTVSS
  polyreactivity (PSR sort gate): low polyreactivity

## QVQLVESGGGLVQAGGSLRLSCAASGSTFGYNAMGWYRQAPGKERELVAAISNGSDRTYYADSVKGRFTISRDNAKNTVYLQMNSLKPEDTAVYYCAKDRDFSSPPTESGFDYWGQGTQVTVSS
  polyreactivity (PSR sort gate): low polyreactivity

## QVQLVESGGGLVQAGGSLRLSCAASGSTFGYNAMGWYRQAPGKERELVAAISRGGRITYYADSVKGRFTISRDNAKNTVYLQMNSLKQEDTAVYNCAARVQWRGYGYYYWGQGTQVTVSS
  polyreactivity (PSR sort gate): high polyreactivity

## QVQLVESGGGLVQAGGSLRLSCAASGSTFGYNAMGWYRQAPGKERELVAAISRSGGRTYYADSVKGRFTISRDNAKNTVYLQMNSLKPEDTAVYYCATYYTNKVPARYYWGQGTQVTVSS
  polyreactivity (PSR sort gate): high polyreactivity

## QVQLVESGGGLVQAGGSLRLSCAASGSTFGYNAMGWYRQAPGKERELVAGIRSSGGSTYYADSVKGRFTISRDNAKNTVYLQMNSLKTEDTAVSYCNTRRRRNEKMYYWGQGTQVTVSS
  polyreactivity (PSR sort gate): high polyreactivity

## QVQLVESGGGLVQAGGSLRLSCAASGSTFGYNAMGWYRQAPGKERELVARITSSGGSTYYADSVKGRFTISRDNAKNTVYLQMNSLKPEDTAVYYCAAGYPYRAVYRYYYWGQGTQVTVSS
  polyreactivity (PSR sort gate): high polyreactivity

## QVQLVESGGGLVQAGGSLRLSCAASGSTFGYNAMGWYRQAPGKERELVASITWSSGSTYYADSVKGRFTISRDNAKNTVYLQMNSLKPEDTAVYYCAADVEYWSYEFNYWGQGTQVTVSS
  polyreactivity (PSR sort gate): low polyreactivity

## QVQLVESGGGLVQAGGSLRLSCAASGSTFGYNDMGWYRQAHGKERELVAVIDSGGSTNYADSVKGRFTISRDNAKNTVYLQMNSLKPEDTAVYYCAADRDKGNGADVWYGYDYWGQGTQVTVSS
  polyreactivity (PSR sort gate): low polyreactivity

## QVQLVESGGGLVQAGGSLRLSCAASGSTFGYNGMGWFRQAPGKERELVAAISGGARTYADSVKGRFTISRDNAKNTVYLQMNSLKPEDTAVYYCAAGVFHIFSRGNYDPSEYEYWGQGTQVTVSS
  polyreactivity (PSR sort gate): low polyreactivity

## QVQLVESGGGLVQAGGSLRLSCAASGSTFGYYAMGWDRQAPGKERELVAAISRRVGSTYYADSVKGRFTISRDNAKNTVSLQMNSLNPEDTAVYYWASTSVNPWRGDYDMYYWGQGTQVTVSS
  polyreactivity (PSR sort gate): high polyreactivity

## QVQLVESGGGLVQAGGSLRLSCAASGSTFGYYAMGWSRQAPGKEREFVAAITYGDGNTYYADSVKGRFTISRDNAKNTVYLQMNRLKREDTEVYYCAKYYWGPTGAHGGYGYWGQGTQVTVCS
  polyreactivity (PSR sort gate): low polyreactivity

## QVQLVESGGGLVQAGGSLRLSCAASGSTFGYYAMGWYRPAPGKERELVAAISSSAGTTYYADSVKGCFTISRDNAKNTVYLLMNRLKPEDTAVFYCAADAVSGHEYWGQGTQVTVSS
  polyreactivity (PSR sort gate): low polyreactivity
